The target of the experiment is hypoglycosylated E-cadherin variant V13 (V13-flag) (human). The experiment in a line: co-IP.

“protein phosphatase 2A catalytic subunit (from UniProt A0A8I3NN81 1-306) (enzyme)” displayed a fold change of co-precipitated PP2A against wild type E-cadherin of 2 fold.

Source of the values: article PMC2878840.
